Source: article PMC6112861 (Nature, 2018)

B1: Wbp1 (natural protein, S. cerevisiae, UniProt P33767 21-430, looked up)
chain: TQTSRTLVLYDQSTEPLEEYSVYLKDLEQRNYKLEYLDINSTSTTVDLYDKEQRLFDNIIVFPTKGGKNLARQIPVKQLIKFFENEGNILCMSSPGAVPNTIRLFLNELGIYPSPKGHVIRDYFSPSSEELVVSSNHLLNKYVYNARKSEDFVFGESSAALLENREQIVPILNAPRTSFTESKGKCNSWTSGSQGFLVVGFQNLNNARLVWIGSSDFLKNKNQDSNQEFAKELLKWTFNEKSVIKSVHAVHSHADGTSYDEEPYKIKDKVIYSVGFSEWNGEEWLPHIADDIQFELRQVDPYYRLTLSPSGNDSETQYYTTGEFILPDRHGVFTFLTDYRKIGLSFTTDKDVKAIRHLANDEYPRSWEISNSWVYISAICGVIVAWIFFVVSFVTTSSVGKKLETFKKTN
modifications: N-glycan at Asn60
B2: Swp1 (natural protein, S. cerevisiae, UniProt Q02795 20-286, looked up)
chain: YVAQDVHVSFPSTAGKSRVMIGKVEPRIGIDETVPTTITVEDPNEVIQVNFAIESTNKPFQNTLLIGLPNKNLEMAFEPEIKDNGKLSMYKYRIDLAKLDAALLQEASRSPEPIKATLILASSTAKPKENLFREILQLNLNFDVDHSDSSLVDKFGIKPEIHHIFHAEPKRVAKPIAVIFVLIIFITILSLIVTWLNSCAAAFNNIPTGVTAVYFLGFIATIVGFEVIFARYYLGTSIFETLFSSLYLGAPGLLTSTKFLRSFGQTI
B3: Ost1 (natural protein, S. cerevisiae, UniProt P41543 23-476, looked up)
chain: AQYEPPATWENVDYKRTIDVSNAYISETIEITIKNIASEPATEYFTAFESGIFSKVSFFSAYFTNEATFLNSQLLANSTTAPGDDGESEIRYGIIQFPNAISPQEEVSLVIKSFYNTVGIPYPEHVGMSEEQHLLWETNRLPLSAYDTKKASFTLIGSSSFEEYHPPNDESLLGKANGNSFEFGPWEDIPRFSSNETLAIVYSHNAPLNQVVNLRRDIWLSHWASTIQFEEYYELTNKAAKLSKGFSRLELMKQIQTQNMRQTHFVTVLDMLLPEGATDHYFTDLVGLVSTSHAERDHFFIRPRFPIFGGWNYNFTVGWTNKLSDFLHVSSGSDEKFVASIPILNGPPDTVYDNVELSVFLPEGAEIFDIDSPVPFTNVSIETQKSYFDLNKGHVKLTFSYRNLISQVANGQVLIKYDYPKSSFFKKPLSIACYIFTALMGVFVLKTLNMNVTN
modifications: N-glycan at Asn336
B4: Ost3 (natural protein, S. cerevisiae, UniProt P48439 23-350, looked up)
chain: MSSNRLLKLANKSPKKIIPLKDSSFENILAPPHENAYIVALFTATAPEIGCSLCLELESEYDTIVASWFDDHPDAKSSNSDTSIFFTKVNLEDPSKTIPKAFQFFQLNNVPRLFIFKPNSPSILDHSVISISTDTGSERMKQIIQAIKQFSQVNDFSLHLPMDWTPIITSTIITFITVLLFKKQSKLMFSIISSRIIWATLSTFFIICMISAYMFNQIRNTQLAGVGPKGEVMYFLPNEFQHQFAIETQVMVLIYGTLAALVVVLVKGIQFLRSHLYPETKKAYFIDAILASFCALFIYVFFAALTTVFTIKSPAYPFPLLRLSAPFK
B5: Ost2 (natural protein, S. cerevisiae, UniProt P46964 1-130, looked up)
chain: MAKAPKANTPKVTSTSSAVLTDFQETFKTSKRAYFAQIEKYPKLKLIDTFCFFLVLLGVIQCTFIILIRDNFPFNAFLAGFIICVGQFVLLMSLRLQLCNSFPGISKNRAFAEFIVASLILHFVCLHFIN
B6: Ost5 (natural protein, S. cerevisiae, UniProt Q92316 1-86, looked up)
chain: MTYEQLYKEFHSSKSFQPFIHLDTQPKFAICGLIVTLAVLSSALFAVGSKSSYIKKLFFYTILSVIGSLFAGLTTVFASNSFGVYV

Tests used:
Assay in all cases: cryo-EM structure
Stt3 = biological target: T1, Stt3 (S. cerevisiae, UniProt P39007 1-718, N-glycan at Asn539)
T1 sequence (looked up): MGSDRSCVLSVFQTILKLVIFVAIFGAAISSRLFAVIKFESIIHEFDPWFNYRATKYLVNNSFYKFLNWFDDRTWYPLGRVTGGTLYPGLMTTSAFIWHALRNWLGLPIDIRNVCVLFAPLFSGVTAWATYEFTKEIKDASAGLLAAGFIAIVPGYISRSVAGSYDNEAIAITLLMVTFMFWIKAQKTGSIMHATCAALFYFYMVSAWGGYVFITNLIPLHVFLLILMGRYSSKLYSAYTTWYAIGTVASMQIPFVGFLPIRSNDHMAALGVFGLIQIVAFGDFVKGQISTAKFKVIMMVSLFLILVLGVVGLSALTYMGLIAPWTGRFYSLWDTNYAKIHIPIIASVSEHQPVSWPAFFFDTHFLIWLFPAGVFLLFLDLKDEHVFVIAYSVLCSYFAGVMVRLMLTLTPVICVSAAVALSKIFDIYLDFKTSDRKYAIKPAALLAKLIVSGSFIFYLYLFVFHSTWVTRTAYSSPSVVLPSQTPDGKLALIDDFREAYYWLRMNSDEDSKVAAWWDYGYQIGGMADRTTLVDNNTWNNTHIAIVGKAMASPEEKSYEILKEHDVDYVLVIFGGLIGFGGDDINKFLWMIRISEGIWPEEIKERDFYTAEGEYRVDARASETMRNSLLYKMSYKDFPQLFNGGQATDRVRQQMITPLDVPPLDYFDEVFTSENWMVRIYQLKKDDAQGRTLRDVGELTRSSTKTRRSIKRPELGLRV

Wbp1 = biological target: B1
Swp1 = biological target: B2
Ost1 = biological target: B3

Binder	binding result (Stt3)	binding result (Wbp1)	binding result (Swp1)	binding result (Ost1)
B1	binds			
B2	binds	binds		
B3	binds			
B4	binds			
B5	binds	binds	binds	
MISDEQLNSLAITFGIVMMTLIVIYHAVDSTMSPKN (natural protein, S. cerevisiae) [Ost4-FLAG]	binds			
B6				binds
